Reference: paper PMC9402603

How the values were obtained:
[1] = target: kpChbG E23K/D224K double-mutant (Klebsiella pneumoniae) (UniProt A6T7U7)
[2] = target: ChbG from Klebsiella pneumoniae (chitooligosaccharide deacetylase), wild type (Klebsiella pneumoniae) (UniProt A6T7U7); test: SEC-MALS; kpChbG 5 mg/mL, Superdex 200 10/300, SEC buffer (20 mM Tris-HCl pH 8.0, 150 mM NaCl), 0.4 mL/min, 25 °C, DAWN-Treos MALS detector
[3] = target: ChbG from Klebsiella pneumoniae (chitooligosaccharide deacetylase), wild type (Klebsiella pneumoniae) (UniProt A6T7U7); test: SEC; Superdex 200 Increase 10/300 GL (24 mL), 20 mM Tris-HCl pH 8.0, 150 mM NaCl, 0.4 mL/min, 4 °C; wild type elutes at approximately 15 mL, E23K/D224K at approximately 17 mL

| stoichiometry N [2] | stoichiometry N [3] | Substance | deacetylation of N,N’-diacetylchitobiose measured by ESI-MS, dimerization disrupting mutant E23K/D224K against wild type [1] |
| --- | --- | --- | --- |
| – | – | kpChbG E23K/D224K double-mutant (from UniProt A6T7U7 1-252) (enzyme) | > 50% |
| 2 | 2 | ChbG from Klebsiella pneumoniae (chitooligosaccharide deacetylase), wild type (from UniProt A6T7U7 1-252) (enzyme) | – |
